The source of these data is US20160319041.

Data set [1] relates to T1, rNFH-SA (engineered protein with residues 426-1066 of the rat NF-H sidearm domain, N-terminal tetra-Cys tag, C-terminal poly-His-Asn tag).
T1 sequence: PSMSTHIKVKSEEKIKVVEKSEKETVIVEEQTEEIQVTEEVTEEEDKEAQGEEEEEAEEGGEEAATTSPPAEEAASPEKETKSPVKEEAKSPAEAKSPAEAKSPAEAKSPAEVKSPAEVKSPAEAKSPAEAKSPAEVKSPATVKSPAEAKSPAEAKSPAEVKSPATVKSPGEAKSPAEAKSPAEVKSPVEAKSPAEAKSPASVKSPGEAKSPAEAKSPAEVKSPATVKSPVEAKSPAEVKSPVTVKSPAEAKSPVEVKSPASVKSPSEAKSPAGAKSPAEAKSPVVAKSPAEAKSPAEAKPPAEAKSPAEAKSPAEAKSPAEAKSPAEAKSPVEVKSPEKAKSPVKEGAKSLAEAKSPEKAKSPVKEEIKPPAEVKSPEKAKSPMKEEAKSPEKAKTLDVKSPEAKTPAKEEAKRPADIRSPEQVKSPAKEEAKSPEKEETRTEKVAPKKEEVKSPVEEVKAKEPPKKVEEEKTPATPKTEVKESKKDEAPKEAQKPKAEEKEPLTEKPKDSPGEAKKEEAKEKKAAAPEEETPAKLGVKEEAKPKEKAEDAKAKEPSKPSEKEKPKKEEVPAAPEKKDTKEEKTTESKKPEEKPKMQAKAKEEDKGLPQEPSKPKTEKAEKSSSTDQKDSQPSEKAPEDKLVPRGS

For data set [2], the target named is T2, rNFH-SA (engineered protein with residues 426-1066 of the rat NF-H sidearm domain, N-terminal tetra-Cys tag, C-terminal poly-His-Asn tag).
T2 chain: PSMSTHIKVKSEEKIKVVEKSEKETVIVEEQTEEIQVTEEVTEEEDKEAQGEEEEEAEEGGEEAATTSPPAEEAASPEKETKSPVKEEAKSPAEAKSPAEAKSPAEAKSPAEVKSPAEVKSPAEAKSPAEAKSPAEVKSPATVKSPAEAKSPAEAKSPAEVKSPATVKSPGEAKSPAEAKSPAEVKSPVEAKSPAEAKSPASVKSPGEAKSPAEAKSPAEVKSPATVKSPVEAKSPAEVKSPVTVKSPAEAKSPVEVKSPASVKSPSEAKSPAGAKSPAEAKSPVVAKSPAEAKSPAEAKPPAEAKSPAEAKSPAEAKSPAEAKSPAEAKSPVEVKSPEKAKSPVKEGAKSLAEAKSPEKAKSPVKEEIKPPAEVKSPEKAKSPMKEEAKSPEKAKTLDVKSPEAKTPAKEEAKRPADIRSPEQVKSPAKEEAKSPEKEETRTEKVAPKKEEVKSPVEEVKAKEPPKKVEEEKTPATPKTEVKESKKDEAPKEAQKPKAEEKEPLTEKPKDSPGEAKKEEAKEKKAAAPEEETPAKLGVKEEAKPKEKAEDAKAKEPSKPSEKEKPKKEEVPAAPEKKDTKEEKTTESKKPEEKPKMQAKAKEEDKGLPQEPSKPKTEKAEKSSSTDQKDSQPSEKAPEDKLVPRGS

For the molecule thrombin, in data set [1], the “loss of HN-tag immunofluorescence; brush height by AFM” value was “addition of thrombin produced a loss of fluorescence (indicating successful enzymatic cleavage) without producing a significant change in brush height by AFM”.

B1: clostripain (protein)
chain: NKNQKVTIMYYCDADNNLEGSLLNDIEEMKTGYKDSPNLNLIALVDRSPRYSSDEKVLGEDFSDTRLYKIEHNKANRLDGKNEFPEISTTSKYEANMGDPEVLKKFIDYCKSNYEADKYVLIMANHGGGAREKSNPRLNRAICWDDSNLDKNGEADCLYMGEISDHLTEKQSVDLLAFDACLMGTAEVAYQYRPGNGGFSADTLVASSPVVWGPGFKYDKIFDRIKAGGGTNNEDDLTLGGKEQNFDPATITNEQLGALFVEEQRDSTHANGRYDQHLSFYDLKKAESVKRAIDNLAVNLSNENKKSEIEKLRGSGIHTDLMHYFDEYSEGEWVEYPYFDVYDLCEKINKSENFSSKTKDLASNAMNKLNEMIVYSFGDPSNNFKEGKNGLSIFLPNGDKKYSTYYTSTKIPHWTMQSWYNSIDTVKYGLNPYGKLSWCKDGQDPEINKVGNWFELLDSWFDKTNDVTGGVNHYQW
Consider B1, for which, in data set [2], the “loss of HN-tag immunofluorescence” value is recorded as “addition of clostripain produced the same loss of fluorescence” and the “reduction of brush height by AFM” value is listed as “reducing brush height by 20%”.
